Measured values taken from patent US20130005646A1 (Novo Nordisk, published 2013).
Starred links: 1 amine or outer side, 2 acyl side, 3 side chain; linkers in the order of their positions; H or OH if unused. Positions of bridges follow the written chain, without caps; N, C: chain ends. Groups on a side chain read outwards from the residue. Primed or numbered codes have the meaning given here. No end group written: not given here. *: point of attachment. C18 diacid′ = 17-carboxyheptadecanoyl on γGlu amine: (S)-4-carboxy-4-(17-carboxyheptadecanoylamino)butyryl; C20 diacid = O=C(O)CCCCCCCCCCCCCCCCCCC(=O)*; C18 diacid = O=C(O)CCCCCCCCCCCCCCCCC(=O)*; γGlu = O=C(O)[C@H](CCC(=O)[*:2])N[*:1]; AEEA = NCCOCCOCC(=O)O

T1: rat amylin 3(a) receptor (rat calcitonin(a) receptor + rat RAMP3) (rat, UniProt P32214 25-516; Q9JJ73 23-147)
T1 sequence (looked up) 1: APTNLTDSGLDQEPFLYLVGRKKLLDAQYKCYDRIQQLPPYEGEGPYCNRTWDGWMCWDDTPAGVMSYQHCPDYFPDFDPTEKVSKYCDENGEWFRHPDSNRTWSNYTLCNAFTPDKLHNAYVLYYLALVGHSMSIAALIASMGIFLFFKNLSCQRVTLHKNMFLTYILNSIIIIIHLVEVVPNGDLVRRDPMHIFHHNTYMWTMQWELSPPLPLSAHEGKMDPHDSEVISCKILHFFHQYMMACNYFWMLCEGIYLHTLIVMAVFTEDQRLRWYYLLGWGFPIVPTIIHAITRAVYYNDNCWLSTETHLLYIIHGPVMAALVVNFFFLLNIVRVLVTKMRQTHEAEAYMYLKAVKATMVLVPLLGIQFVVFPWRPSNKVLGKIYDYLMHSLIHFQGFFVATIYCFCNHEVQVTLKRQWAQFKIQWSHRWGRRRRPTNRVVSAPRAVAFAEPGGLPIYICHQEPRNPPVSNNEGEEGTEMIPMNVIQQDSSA
T1 sequence (looked up) 2: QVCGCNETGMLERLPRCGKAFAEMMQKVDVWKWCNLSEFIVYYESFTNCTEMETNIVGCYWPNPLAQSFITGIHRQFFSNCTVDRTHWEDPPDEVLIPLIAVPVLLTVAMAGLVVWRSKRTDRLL

T2: human amylin 3(a) receptor (human calcitonin receptor + RAMP-3) (human, UniProt P30988 25-474; O60896 24-148)
T2 sequence (looked up) 1: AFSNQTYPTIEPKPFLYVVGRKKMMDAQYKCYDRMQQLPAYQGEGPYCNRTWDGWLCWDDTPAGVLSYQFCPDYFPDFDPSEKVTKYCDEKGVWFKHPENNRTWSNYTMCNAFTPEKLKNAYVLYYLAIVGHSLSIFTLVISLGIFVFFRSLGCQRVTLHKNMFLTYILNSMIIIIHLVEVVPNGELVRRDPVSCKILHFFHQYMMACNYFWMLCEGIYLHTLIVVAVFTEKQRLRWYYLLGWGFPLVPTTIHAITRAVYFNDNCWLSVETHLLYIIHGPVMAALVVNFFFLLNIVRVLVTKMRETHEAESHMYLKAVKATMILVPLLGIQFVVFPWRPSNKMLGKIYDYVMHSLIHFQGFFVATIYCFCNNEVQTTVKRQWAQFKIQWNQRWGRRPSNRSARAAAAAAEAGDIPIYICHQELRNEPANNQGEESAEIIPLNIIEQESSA
T2 sequence (looked up) 2: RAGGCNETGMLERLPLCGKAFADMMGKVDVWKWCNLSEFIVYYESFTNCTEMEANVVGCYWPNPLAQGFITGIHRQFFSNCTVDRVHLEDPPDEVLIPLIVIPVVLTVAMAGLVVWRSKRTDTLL

T3: rat calcitonin (a) receptor (rat, UniProt P32214 25-516)
T3 sequence (looked up): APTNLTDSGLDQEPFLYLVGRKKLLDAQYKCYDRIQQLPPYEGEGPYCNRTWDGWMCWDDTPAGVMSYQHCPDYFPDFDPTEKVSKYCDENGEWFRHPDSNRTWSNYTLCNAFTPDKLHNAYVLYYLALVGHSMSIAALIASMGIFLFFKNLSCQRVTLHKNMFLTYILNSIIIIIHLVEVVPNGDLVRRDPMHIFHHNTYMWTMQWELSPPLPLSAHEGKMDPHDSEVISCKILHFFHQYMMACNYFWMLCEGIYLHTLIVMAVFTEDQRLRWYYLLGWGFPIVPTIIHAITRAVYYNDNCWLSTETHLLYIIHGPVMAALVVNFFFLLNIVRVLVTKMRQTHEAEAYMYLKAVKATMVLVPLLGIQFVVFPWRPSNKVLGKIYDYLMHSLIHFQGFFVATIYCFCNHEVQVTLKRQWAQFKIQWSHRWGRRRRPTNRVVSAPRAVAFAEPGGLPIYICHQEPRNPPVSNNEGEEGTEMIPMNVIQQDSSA

T4: human calcitonin (a) receptor (human, UniProt P30988 25-474)
T4 sequence (looked up): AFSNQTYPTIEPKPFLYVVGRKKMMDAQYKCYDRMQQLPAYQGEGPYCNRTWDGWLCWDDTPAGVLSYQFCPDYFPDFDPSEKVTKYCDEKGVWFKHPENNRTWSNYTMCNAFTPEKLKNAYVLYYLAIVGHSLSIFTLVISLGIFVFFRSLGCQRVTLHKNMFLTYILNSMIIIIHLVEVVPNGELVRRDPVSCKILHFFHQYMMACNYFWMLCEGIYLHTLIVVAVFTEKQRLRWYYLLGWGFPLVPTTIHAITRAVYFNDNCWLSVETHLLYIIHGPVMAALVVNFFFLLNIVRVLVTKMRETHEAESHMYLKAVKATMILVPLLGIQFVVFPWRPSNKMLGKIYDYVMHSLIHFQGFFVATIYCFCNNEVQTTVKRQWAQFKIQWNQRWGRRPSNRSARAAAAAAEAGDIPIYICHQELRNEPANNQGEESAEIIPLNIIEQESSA


What was measured:
Test in all cases: cell-based or functional assay
[1] = target: T1, rat amylin 3(a) receptor (rat …)
[2] = target: T2, human amylin 3(a) receptor (human …)
[3] = target: T3, rat calcitonin (a) receptor
[4] = target: T4, human calcitonin (a) receptor

Binder | Amylin receptor rat EC50 [1] [nM] | Amylin receptor human EC50 [2] [nM] | CTa receptor rat EC50 [3] [nM] | CTa receptor human EC50 [4] [nM]
{C20 diacid-γGlu}-KCNTATCATQRLAEFLRHSSNNFGAPLSSTNVGSHTY-NH2 (disulfide 2-7; SMILES CC(C)C[C@H](NC(=O)[C@H](CCCNC(=N)N)NC(=O)[C@H](CCC(N)=O)NC(=O)[C@@H](NC(=O)[C@H](C)NC(=O)[C@@H]1CSSC[C@H](NC(=O)[C@H](CCCCN)NC(=O)CC[C@H](NC(=O)CCCCCCCCCCCCCCCCCCC(=O)O)C(=O)O)C(=O)N[C@@H](CC(N)=O)C(=O)N[C@@H]([C@@H](C)O)C(=O)N[C@@H](C)C(=O)N[C@@H]([C@@H](C)O)C(=O)N1)[C@@H](C)O)C(=O)N[C@@H](C)C(=O)N[C@@H](CCC(=O)O)C(=O)N[C@@H](Cc1ccccc1)C(=O)N[C@@H](CC(C)C)C(=O)N[C@@H](CCCNC(=N)N)C(=O)N[C@@H](Cc1c[nH]cn1)C(=O)N[C@@H](CO)C(=O)N[C@@H](CO)C(=O)N[C@@H](CC(N)=O)C(=O)N[C@@H](CC(N)=O)C(=O)N[C@@H](Cc1ccccc1)C(=O)NCC(=O)N[C@@H](C)C(=O)N1CCC[C@H]1C(=O)N[C@@H](CC(C)C)C(=O)N[C@@H](CO)C(=O)N[C@@H](CO)C(=O)N[C@H](C(=O)N[C@@H](CC(N)=O)C(=O)N[C@H](C(=O)NCC(=O)N[C@@H](CO)C(=O)N[C@@H](Cc1c[nH]cn1)C(=O)N[C@H](C(=O)N[C@@H](Cc1ccc(O)cc1)C(N)=O)[C@@H](C)O)C(C)C)[C@@H](C)O) | 1.33 | 0.217 | 5.35 | 0.342
{C18 diacid-γGlu}-KCNTATCATQRLAEFLRHSSNNFGPILPPTNVGSHTY-NH2 (disulfide 2-7; SMILES CC[C@H](C)[C@H](NC(=O)[C@@H]1CCCN1C(=O)CNC(=O)[C@H](Cc1ccccc1)NC(=O)[C@H](CC(N)=O)NC(=O)[C@H](CC(N)=O)NC(=O)[C@H](CO)NC(=O)[C@H](CO)NC(=O)[C@H](Cc1c[nH]cn1)NC(=O)[C@H](CCCNC(=N)N)NC(=O)[C@H](CC(C)C)NC(=O)[C@H](Cc1ccccc1)NC(=O)[C@H](CCC(=O)O)NC(=O)[C@H](C)NC(=O)[C@H](CC(C)C)NC(=O)[C@H](CCCNC(=N)N)NC(=O)[C@H](CCC(N)=O)NC(=O)[C@@H](NC(=O)[C@H](C)NC(=O)[C@@H]1CSSC[C@H](NC(=O)[C@H](CCCCN)NC(=O)CC[C@H](NC(=O)CCCCCCCCCCCCCCCCC(=O)O)C(=O)O)C(=O)N[C@@H](CC(N)=O)C(=O)N[C@@H]([C@@H](C)O)C(=O)N[C@@H](C)C(=O)N[C@@H]([C@@H](C)O)C(=O)N1)[C@@H](C)O)C(=O)N[C@@H](CC(C)C)C(=O)N1CCC[C@H]1C(=O)N1CCC[C@H]1C(=O)N[C@H](C(=O)N[C@@H](CC(N)=O)C(=O)N[C@H](C(=O)NCC(=O)N[C@@H](CO)C(=O)N[C@@H](Cc1c[nH]cn1)C(=O)N[C@H](C(=O)N[C@@H](Cc1ccc(O)cc1)C(N)=O)[C@@H](C)O)C(C)C)[C@@H](C)O) [N-alpha-[(S)-4-Carboxy-4-(17-carboxyheptadecanoylamino)butyryl]-[Glu14,Arg17,His35]-pramlintide] | 0.038 | 0.0675 | 2.36 | 0.335
KCNTATCATQRLAEFLHHSSNNFGK([AEEA-AEEA-γGlu-C18 diacid])ILPPTNVGSNTY-NH2 (disulfide 2-7; N-terminus assumed; SMILES CC[C@H](C)[C@H](NC(=O)[C@H](CCCCNC(=O)COCCOCCNC(=O)COCCOCCNC(=O)CC[C@H](NC(=O)CCCCCCCCCCCCCCCCC(=O)O)C(=O)O)NC(=O)CNC(=O)[C@H](Cc1ccccc1)NC(=O)[C@H](CC(N)=O)NC(=O)[C@H](CC(N)=O)NC(=O)[C@H](CO)NC(=O)[C@H](CO)NC(=O)[C@H](Cc1c[nH]cn1)NC(=O)[C@H](Cc1c[nH]cn1)NC(=O)[C@H](CC(C)C)NC(=O)[C@H](Cc1ccccc1)NC(=O)[C@H](CCC(=O)O)NC(=O)[C@H](C)NC(=O)[C@H](CC(C)C)NC(=O)[C@H](CCCNC(=N)N)NC(=O)[C@H](CCC(N)=O)NC(=O)[C@@H](NC(=O)[C@H](C)NC(=O)[C@@H]1CSSC[C@H](NC(=O)[C@@H](N)CCCCN)C(=O)N[C@@H](CC(N)=O)C(=O)N[C@@H]([C@@H](C)O)C(=O)N[C@@H](C)C(=O)N[C@@H]([C@@H](C)O)C(=O)N1)[C@@H](C)O)C(=O)N[C@@H](CC(C)C)C(=O)N1CCC[C@H]1C(=O)N1CCC[C@H]1C(=O)N[C@H](C(=O)N[C@@H](CC(N)=O)C(=O)N[C@H](C(=O)NCC(=O)N[C@@H](CO)C(=O)N[C@@H](CC(N)=O)C(=O)N[C@H](C(=O)N[C@@H](Cc1ccc(O)cc1)C(N)=O)[C@@H](C)O)C(C)C)[C@@H](C)O) | 0.052 | 0.0385 | 0.167 | 0.045
{C18 diacid-γGlu}-KCNTATCATQRLAEFLHHSSNNFGPILPPTNVGSHTY-NH2 (disulfide 2-7; not fully specified; printed as N-alpha-[(S)-4-Carboxy-4-(17-carboxyheptadecanoylamino)butyryl]-[Glu14,His17,His35]-pramlintide) [N-alpha-[(S)-4-Carboxy-4-(17-carboxyheptadecanoylamino)butyryl]-[Glu14,His17,His35]-pramlintide] | 0.023 | 0.056 | 0.148 | 0.0605
{C20 diacid-γGlu}-HKCNTATCATQRLAEFLHHSSNNFGPILPPTNVGSHTY-NH2 (disulfide 3-8; SMILES CC[C@H](C)[C@H](NC(=O)[C@@H]1CCCN1C(=O)CNC(=O)[C@H](Cc1ccccc1)NC(=O)[C@H](CC(N)=O)NC(=O)[C@H](CC(N)=O)NC(=O)[C@H](CO)NC(=O)[C@H](CO)NC(=O)[C@H](Cc1c[nH]cn1)NC(=O)[C@H](Cc1c[nH]cn1)NC(=O)[C@H](CC(C)C)NC(=O)[C@H](Cc1ccccc1)NC(=O)[C@H](CCC(=O)O)NC(=O)[C@H](C)NC(=O)[C@H](CC(C)C)NC(=O)[C@H](CCCNC(=N)N)NC(=O)[C@H](CCC(N)=O)NC(=O)[C@@H](NC(=O)[C@H](C)NC(=O)[C@@H]1CSSC[C@H](NC(=O)[C@H](CCCCN)NC(=O)[C@H](Cc2c[nH]cn2)NC(=O)CC[C@H](NC(=O)CCCCCCCCCCCCCCCCCCC(=O)O)C(=O)O)C(=O)N[C@@H](CC(N)=O)C(=O)N[C@@H]([C@@H](C)O)C(=O)N[C@@H](C)C(=O)N[C@@H]([C@@H](C)O)C(=O)N1)[C@@H](C)O)C(=O)N[C@@H](CC(C)C)C(=O)N1CCC[C@H]1C(=O)N1CCC[C@H]1C(=O)N[C@H](C(=O)N[C@@H](CC(N)=O)C(=O)N[C@H](C(=O)NCC(=O)N[C@@H](CO)C(=O)N[C@@H](Cc1c[nH]cn1)C(=O)N[C@H](C(=O)N[C@@H](Cc1ccc(O)cc1)C(N)=O)[C@@H](C)O)C(C)C)[C@@H](C)O) [N-alpha-[(S)-4-Carboxy-4-(19-carboxynonadecanoylamino)butyryl]-His-[Glu14,His17,His35]-pramlintide] | 0.305 | 0.182 | 0.656 | 0.21
{C18 diacid′-γGlu}-EKCNTATCATQRLAEFLRHSSNNFGPILPPTNVGSHTY-NH2 (disulfide 3-8) [N-alpha-[(S)-4-Carboxy-4-(17-carboxyheptadecanoylamino)butyryl]-Glu-[Glu14,Arg17,His35]-pramlintide] | 0.281 | 0.172 | 17.6 | 1.07
